Data taken from patent US20110243934A1.

Target: EphA3 antigen (UniProt P29320)
Assay: ELISA

UniProt P29320, sequence (P29320 21-541 limits assumed): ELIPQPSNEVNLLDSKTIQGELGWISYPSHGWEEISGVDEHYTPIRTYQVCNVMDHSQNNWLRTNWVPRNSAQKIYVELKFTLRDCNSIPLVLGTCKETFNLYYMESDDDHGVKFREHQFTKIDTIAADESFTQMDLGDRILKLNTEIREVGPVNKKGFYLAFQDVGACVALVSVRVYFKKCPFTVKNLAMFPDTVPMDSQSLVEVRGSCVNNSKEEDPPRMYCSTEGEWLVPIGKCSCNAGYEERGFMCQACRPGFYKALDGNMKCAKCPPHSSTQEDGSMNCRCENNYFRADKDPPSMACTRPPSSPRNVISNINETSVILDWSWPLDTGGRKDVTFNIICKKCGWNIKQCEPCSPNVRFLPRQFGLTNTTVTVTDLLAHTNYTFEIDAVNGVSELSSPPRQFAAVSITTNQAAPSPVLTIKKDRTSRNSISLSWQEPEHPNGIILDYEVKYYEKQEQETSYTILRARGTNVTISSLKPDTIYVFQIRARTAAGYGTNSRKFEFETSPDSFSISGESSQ

monoclonal antibody IIIA4
AFFINITY: 2.5 nM
